Test results reported in the supplement of paper PMC7125110.
± gives the standard error. Fewer inactive variants are shown than the library holds.

B1: glmS ribozyme (parent)
chain: AUAAAAGCGCCAGAACUACAGAAAUGUAGUUGACGAGGAGGAGGUUUAUCGAAUUUUCGGCGGAUGCCUCCAAA

What was measured:
Conditions in all cases: with glucosamine-6-phosphate
glucosamine-6-phosphate [1] = variants of: B1; experiment: self-cleavage kobs at 40 uM GlcN6P; higher = faster cleavage; RNA array
Procedure, shortened: (§1)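 Using a hybridised Cy3 probe at 37 °C, barcoded ribozyme variants transcribed in situ by E. coli RNA polymerase on sequenced MiSeq chips were monitored across tiles imaged over ~14 h. The flow contained glucosamine-6-phosphate from 40 μM to 10 mM in HEPES/KCl/Mg(OAc)2 buffer. Signals were normalised to baseline and to non-cleaving reference variants before per-tile medians were fit to one- or two-exponential decays to yield kobs. Weighted Michaelis–Menten fits across concentrations gave kcat and KM.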

glucosamine-6-phosphate [2] = variants of: B1; experiment: self-cleavage kobs at 160 uM GlcN6P; higher = faster cleavage; RNA array
Procedure, shortened: as §1

glucosamine-6-phosphate [3] = variants of: B1; experiment: self-cleavage kobs at 640 uM GlcN6P; higher = faster cleavage; RNA array
Procedure, shortened: as §1

glucosamine-6-phosphate [4] = variants of: B1; experiment: self-cleavage kobs at 2500 uM GlcN6P; higher = faster cleavage; RNA array
Procedure, shortened: as §1

glucosamine-6-phosphate [5] = variants of: B1; experiment: self-cleavage kobs at 10000 uM GlcN6P; higher = faster cleavage; RNA array
Procedure, shortened: as §1

Row | Variant | self-cleavage kobs at 40 uM GlcN6P (glucosamine-6-phosphate [1]) [s⁻¹] | self-cleavage kobs at 160 uM GlcN6P (glucosamine-6-phosphate [2]) [s⁻¹] | self-cleavage kobs at 640 uM GlcN6P (glucosamine-6-phosphate [3]) [s⁻¹] | self-cleavage kobs at 2500 uM GlcN6P (glucosamine-6-phosphate [4]) [s⁻¹] | self-cleavage kobs at 10000 uM GlcN6P (glucosamine-6-phosphate [5]) [s⁻¹]
1 | A15C U49C | < 1e-05 | < 1e-05 | < 1e-05 | < 1e-05 | < 1e-05
2 | C11G C50A A52U G63A | < 1e-05 |  |  |  | < 1e-05
3 | G13C A36C C71G | < 1e-05 |  | < 1e-05 |  | 
4 | C10G C11G G63C | < 1e-05 |  |  |  | < 1e-05
5 | C11U C61G U69C | 9.12e-05 ± 2.3e-05 |  |  |  | 4.04e-05 ± 1.7e-05
6 | A12C A14G A53U C67G | 9.17e-05 ± 2.3e-05 |  |  |  | 0.00219 ± 0.00062
7 | C10U G32U A64C | < 1e-05 |  |  |  | < 1e-05
8 | A14C G60U C71G | < 1e-05 |  |  |  | < 1e-05
9 | A12C A15C A42U U57G C61G C71U | < 1e-05 | < 1e-05 |  | < 1e-05 | 
10 | G13C G59U | < 1e-05 | < 1e-05 | < 1e-05 | < 1e-05 | 
11 | A14G A33U G43A | < 1e-05 |  |  |  | < 1e-05
12 | A14G C68U | 0.000235 ± 1.9e-05 | 0.000503 ± 6.4e-05 | 0.00222 ± 0.00018 | 0.00412 ± 0.00051 | 0.0159 ± 0.0026
13 | A14G A53U U55G | 0.000607 ± 0.00013 |  |  |  | 0.036 ± 0.013
14 | C10U C11A A39C A42U U47C G66C | < 1e-05 |  |  |  | 
15 | C11U A12U C34A G66C | < 1e-05 |  | < 1e-05 | < 1e-05 | < 1e-05
16 | C11U U49G C58U G60C | < 1e-05 |  |  | < 1e-05 | 
17 | A14G U55G | 0.00161 ± 0.00014 | 0.00404 ± 0.00073 | 0.00984 ± 0.0012 | 0.00953 ± 0.0023 | 0.0589 ± 0.011
18 | A12U A52G C67U | 7.05e-05 ± 1.6e-05 |  |  |  | 0.00179 ± 0.00037
19 | C11G U45A | < 1e-05 |  |  |  | 
20 | A12U U49A | < 1e-05 | < 1e-05 |  |  | 
21 | C10U G32A G51C C67U C71U | < 1e-05 |  |  | < 1e-05 | 
22 | A15U A52C G59A C70A | < 1e-05 |  |  |  | 
23 | C11G G60U | < 1e-05 | < 1e-05 | < 1e-05 |  | < 1e-05
24 | A15C C34A G37U G41A | < 1e-05 |  |  |  | < 1e-05
25 | C11U U46A | < 1e-05 | < 1e-05 |  | 4.03e-05 ± 1.7e-05 | 9.01e-05 ± 1.7e-05
